Measurements reported in US20210130420A1, “RECOMBINANT BINDING PROTEINS TARGETING HER2 AND SERUM ALBUMIN, AND THEIR USES” (Molecular Partners AG, priority 2016, published 2021).

Experiments:
[1] = Storage stability in PBS analysed by SDS-PAGE; assay type: physicochemical; settings: SDS-PAGE after 1 month at 40° C. in glass vials in PBS at 10 mg/ml
Method: “Improved storage stability” in the context of the present invention means the reduction of the amounts of a degradation band, preferably the reduction of the amount of degradation products, as detected by a Coomassie-stained SDS-PAGE occurring after storage at 40° C. for 1 month at 10 mg/ml in PBS, by at least 5%, 10%, 15%, 20%, 25%, 30%, 35%, 40%, 45%, 50%, or 50%. Methods to assess storage stability by SDS-PAGE are well known to the person skilled in the art. Examples of designed ankyrin repeat domains and recombinant binding proteins with improved storage stability properties are given in Examples 2 and 3.
Protein #13-His, Protein #14-His and Protein #15-His were prepared as described in Example 1, and samples were concentrated to 10 mg/ml in PBS. Protein #14-His and Protein #15-His where then stored for 1 month at −80° C. or at 40° C. in glass vials, followed by analysis on SDS 15% PAGE. […] These findings illustrate that Protein #14-His has improved storage stability compared to Proteins #13-His and Protein #15-His.
(§1) A storage stability improvement is also observed, when testing the storage stability of Protein #21 and Protein #22 (recombinant binding proteins consisting of the amino acid sequences corresponding to SEQ ID NOs: 21 and 22, respectively). Protein #21 and Protein #22 are prepared as described in Example 1, samples are concentrated to 10 mg/ml in PBS and stored for 1 month at −80° C. in or at 40° C. in glass vials, followed by analysis on standard size-exclusion chromatography.

[2] = Storage stability in PBS analysed by size-exclusion chromatography; assay type: physicochemical; settings: 10 mg/ml in PBS
Method: as §1

[3] = target: extracellular domains of HER3 (Homo sapiens, UniProt P21860); experiment: Surface plasmon resonance interaction with HER3; assay type: binding
[4] = test system: SKBR-3, SKOV-3, NCI-N87, ZR-75-30, HCC1419, or MDA-MB175; experiment: Proliferation inhibition on a variety of cancer cell-lines; assay type: cell-based
GXA281 = experiment: Gastric cancer PDX mouse model GXA281; assay type: in vivo; settings: FIG. 4E; Protein #21 40 mg/kg every three days for 6 times i.v.; Lapatinib 100 mg/kg/day for 21 days
Method: In a similar experiment, Protein #21 was further tested in the gastric cancer PDX mouse model GXA281, well known to the person skilled in the art, in comparison to the standard of care Lapatinib (FIG. 4E). Briefly, tumor implantation and tumor growth monitoring was done as described above. Lapatinib was dosed at 100 mg/kg/day for 21 days daily […]. and Protein #21 at 40 mg/kg every three days for 6 times i.v.

[5] = Thermal stability by circular dichroism; assay type: physicochemical; settings: 0.4 μM in PBS
Method: Protein #21 was expressed and purified as described in Example 1. Thermal stability was evaluated using circular dichroism using a Jasco J-815 CD spectrometer in a nitrogen atmosphere (3 L/min). Protein #21 at 0.4 μM in PBS in 117.100F-QS cuvettes (Hellma, d=1 cm) with in-solution temperature control sensors were measured, heating from 20° C. to 95° C. (below 45° C.: +3° C./min; above 45° C.: +1° C./min recording the signal at 222 nm, a 1 min delay at 95° C. and a subsequent cooling phase (inverted program compared to heating phase). The CD signal was normalized to mean residual ellipticity (MRE) with the unit deg cm2 dmol-1. Additionally, the far-UV CD spectrum was recorded.

AKT [6] = experiment: Phospho-proteome mass spectrometry of BT474 cells; assay type: cell-based, human; settings: 100 nM, 18 hours
From the text: (§2) Protein #21 was expressed and purified as described in Example 1. […] Cells were then subjected to a phospho-proteome mass-spectrometry analysis as described by Britton, D., et al. (Britton, D., Zen, Y., Quaglia, A., Selzer, S., Mitra, VI., Lössner, C., Jung, S., Bohm, G., Schmid, P., Prefot, P., Hoehle, C., Koncarevic, S., Gee, J., Nicholson, R., Ward, M., Castellano, L., Stebbing, J., Zucht, H. D., Sarker, D., Heaton, N., and Pike, I., 2014. PLOS One 9 (3), e90948).

RAF = experiment: Phospho-proteome mass spectrometry of BT474 cells; assay type: cell-based, human; settings: 100 nM, 18 hours
From the text: as §2

RPS6KB1/S6 Kinase = experiment: Phospho-proteome mass spectrometry of BT474 cells; assay type: cell-based, human; settings: 100 nM, 18 hours
From the text: as §2

mTOR = experiment: Phospho-proteome mass spectrometry of BT474 cells; assay type: cell-based, human; settings: 100 nM, 18 hours
From the text: as §2

AKT [7] = experiment: Phospho-site specific ELISA, BT474 cells; assay type: cell-based, human; settings: 100 nM, 18 hours
Foxo3a protein = experiment: Cellular levels of Foxo3a protein in BT474 cells; assay type: cell-based, human; settings: compared to an exposure to PBS only
From the text: as §2
It is known to the practitioner in the art, that Akt1 phosphorylates Foxo3a, resulting in the degradation of Foxo3a and promotion of cell survival. Inhibition of Act phosphorylation leads to stabilization of Foxo3a and thus increase in Foxo3a levels. At increased levels Foxo3a can translocate to the nucleus and induce apoptosis.

HER2 = HER2 (Homo sapiens, UniProt P04626); experiment: Phospho-proteome mass spectrometry of BT474 cells; assay type: cell-based; parameters: host or cells: BT474; settings: 100 nM, 18 hours
From the text: as §2

B1: Protein #21: SEQ ID NO: 21; HER2 binding domains (SEQ ID NOs: 16, 17) flanked by two serum albumin binding domains (SEQ ID NO: 14), SEQ ID NO: 9 linkers (protein)
chain: GSDLGKKLLEAARAGQDDEVRELLKAGADVNAKDYFSHTPLHLAARNGHLKIVEVLLKAGADVNAKDFAGKTPLHLAANEGHLEIVEVLLKAGADVNAQDIFGKTPADIAADAGHEDIAEVLQKAAGSPTPTPTTPTPTPTTPTPTPTGSDLGIKLLFAAAKGQDDEVRELLKAGADVNAKDFQGVTPLHIAAQSGHLEIVEVLLKAGADVNAKDVTGDTPLHLAAQHGHLEIVEVLLKAGADVNAQDERGWTPADLAADWGHEDIAEVLQKAAGSPTPTPTTPTPTPTTPTPTPTGSDLGKKLLEAARAGQDDEVRELLKAGADVNAKDEYGLTPLYLATAHGHLEIVEVLLKAGADVNAVDAIGFTPLHLAAFIGHLEIAEVLLKAGADVNAQDKFGKTPADIAAGAGNEDIAEVLQKAAGSPTPTPTTPTPTPTTPTPTPTGSDLGKKLLEAARAGQDDEVRELLKAGADVNAKDYFSHTPLHLAARNGHLKIVEVLLKAGADVNAKDFAGKTPLHLAANEGHLEIVEVLLKAGADVNAQDIFGKTPADIAADAGHEDIAEVLQKAA
modifications: Protein comprising four designed ankyrin repeat domains
amounts of degradation products compared to Protein #22 [1]: lower amounts of degradation products | monomeric species compared to Protein #22 ([2]; 1 month at 40° C.): significantly more monomeric species | elution profiles upon storage at −80° C. ([2]; 1 month at −80° C.): equivalent elution profiles | interaction with extracellular domains of HER3 [3]: does not interact | proliferation inhibition on cancer cell-lines [4]: strong proliferation inhibition | inhibition of tumor growth (GXA281): strong inhibition of tumor growth compared to Lapatinib | temperature above which loss of signal at 222 nm is detected [5]: above 78 °C | AKT S124 phosphorylation (AKT [6]): 0.99 fold change to PBS | AKT S129 phosphorylation (AKT [6]): 0.93 fold change to PBS | RAF S642 phosphorylation (RAF): 0.81 fold change to PBS | RAF T631/T638/T640/T641/S642 phosphorylation (RAF): 0.48 fold change to PBS | RPS6KB1/S6Kinase S441/T444/S447 phosphorylation (RPS6KB1/S6 Kinase): 0.63 fold change to PBS | RPS6KB1/S6Kinase T444/S447 phosphorylation (RPS6KB1/S6 Kinase): 0.92 fold change to PBS | mTOR S2448/S2454 phosphorylation (mTOR): 0.79 fold change to PBS | AKT S473 phosphorylation (AKT [7]): 0.16 fold change to PBS | increase of cellular levels of Foxo3a protein (Foxo3a protein): 1.88 fold | HER2 S1073/S1078/S1083 phosphorylation (HER2): 0.35 fold change to PBS | HER2 S1174 phosphorylation (HER2): 0.59 fold change to PBS | HER2 T772 phosphorylation (HER2): 10.27 fold change to PBS | HER2 T1172/S1174 phosphorylation (HER2): 0.44 fold change to PBS | HER2 T1240 phosphorylation (HER2): 0.09 fold change to PBS | HER2 Y1139/S1151 phosphorylation (HER2): 0.88 fold change to PBS
